Measured values as given in US20260167699A1 (Chugai, published 2026).

B1: GpH7-A5/GpH7-B3 variant L328_16H/GpL16-k0 (antibody, human IgG1, kappa)
heavy 1: not shown
heavy 2: not shown
light: DIVMTQSPLSLPVTPGEPASISCQASESLVHSNRNTYLHWYLQKPGQSPQLLIYKVSNRFSGVPDRFSGSGSGTDFTLKISRVEAEDVGVYYCSQNTHVPPTFGQGTKVEIERTVAAPSVFIFPPSDEQLKSGTASVVCLLNNFYPREAKVQWKVDNALQSGNSQESVTEQDSKDSTYSLSSTLTLSKADYEKHKVYACEVTHQGLSSPVTKSFNRGEC
notes: He Ab; copies: 1 + 1 + 2
B2: GpH7-A5/GpH7-B3 variant L328_18N/GpL16-k0 (antibody, human IgG1, kappa)
heavy 1: not shown
heavy 2: not shown
light: B1 light
notes: He Ab; copies: 1 + 1 + 2
B3: GpH7-A5/GpH7-B3 variant L328_19Q/GpL16-k0 (antibody, human IgG1, kappa)
heavy 1: not shown
heavy 2: not shown
light: B1 light
notes: He Ab; copies: 1 + 1 + 2
B4: GpH7-A5/GpH7-B3 variant N325_09D/GpL16-k0 (antibody, human IgG1, kappa)
heavy 1: not shown
heavy 2: not shown
light: B1 light
notes: He Ab; copies: 1 + 1 + 2
B5: GpH7-A5/GpH7-B3 variant N325_13S/GpL16-k0 (antibody, human IgG1, kappa)
heavy 1: not shown
heavy 2: not shown
light: B1 light
notes: He Ab; copies: 1 + 1 + 2
B6: GpH7-A5/GpH7-B3 variant N325_16H/GpL16-k0 (antibody, human IgG1, kappa)
heavy 1: not shown
heavy 2: not shown
light: B1 light
notes: He Ab; copies: 1 + 1 + 2
B7: GpH7-A5/GpH7-B3 variant P238_08L/GpL16-k0 (antibody, human IgG1, kappa)
heavy 1: not shown
heavy 2: not shown
light: B1 light
notes: He Ab; copies: 1 + 1 + 2
B8: GpH7-A5/GpH7-B3 variant P238_09D/GpL16-k0 (antibody, human IgG1, kappa)
heavy 1: not shown
heavy 2: not shown
light: B1 light
notes: He Ab; copies: 1 + 1 + 2
B9: GpH7-A5/GpH7-B3 variant P238_10E/GpL16-k0 (antibody, human IgG1, kappa)
heavy 1: not shown
heavy 2: not shown
light: B1 light
notes: He Ab; copies: 1 + 1 + 2
B10: GpH7-A5/GpH7-B3 variant P238_15Y/GpL16-k0 (antibody, human IgG1, kappa)
heavy 1: not shown
heavy 2: not shown
light: B1 light
notes: He Ab; copies: 1 + 1 + 2
B11: GpH7-A5/GpH7-B3 variant P238_19Q/GpL16-k0 (antibody, human IgG1, kappa)
heavy 1: not shown
heavy 2: not shown
light: B1 light
notes: He Ab; copies: 1 + 1 + 2
B12: GpH7-A5/GpH7-B3 variant P271_01G/GpL16-k0 (antibody, human IgG1, kappa)
heavy 1: not shown
heavy 2: not shown
light: B1 light
notes: He Ab; copies: 1 + 1 + 2
B13: GpH7-A5/GpH7-B3 variant P271_02A/GpL16-k0 (antibody, human IgG1, kappa)
heavy 1: not shown
heavy 2: not shown
light: B1 light
notes: He Ab; copies: 1 + 1 + 2
B14: GpH7-A5/GpH7-B3 variant P271_03V/GpL16-k0 (antibody, human IgG1, kappa)
heavy 1: not shown
heavy 2: not shown
light: B1 light
notes: He Ab; copies: 1 + 1 + 2
B15: GpH7-A5/GpH7-B3 variant P271_04F/GpL16-k0 (antibody, human IgG1, kappa)
heavy 1: not shown
heavy 2: not shown
light: B1 light
notes: He Ab; copies: 1 + 1 + 2
B16: GpH7-A5/GpH7-B3 variant P271_06M/GpL16-k0 (antibody, human IgG1, kappa)
heavy 1: not shown
heavy 2: not shown
light: B1 light
notes: He Ab; copies: 1 + 1 + 2
B17: GpH7-A5/GpH7-B3 variant P271_07I/GpL16-k0 (antibody, human IgG1, kappa)
heavy 1: not shown
heavy 2: not shown
light: B1 light
notes: He Ab; copies: 1 + 1 + 2
B18: GpH7-A5/GpH7-B3 variant P271_08L/GpL16-k0 (antibody, human IgG1, kappa)
heavy 1: not shown
heavy 2: not shown
light: B1 light
notes: He Ab; copies: 1 + 1 + 2
B19: GpH7-A5/GpH7-B3 variant P271_09D/GpL16-k0 (antibody, human IgG1, kappa)
heavy 1: not shown
heavy 2: not shown
light: B1 light
notes: He Ab; copies: 1 + 1 + 2
B20: GpH7-A5/GpH7-B3 variant P271_10E/GpL16-k0 (antibody, human IgG1, kappa)
heavy 1: not shown
heavy 2: not shown
light: B1 light
notes: He Ab; copies: 1 + 1 + 2
B21: GpH7-A5/GpH7-B3 variant P271_11K/GpL16-k0 (antibody, human IgG1, kappa)
heavy 1: not shown
heavy 2: not shown
light: B1 light
notes: He Ab; copies: 1 + 1 + 2
B22: GpH7-A5/GpH7-B3 variant P271_12R/GpL16-k0 (antibody, human IgG1, kappa)
heavy 1: not shown
heavy 2: not shown
light: B1 light
notes: He Ab; copies: 1 + 1 + 2
B23: GpH7-A5/GpH7-B3 variant P271_13S/GpL16-k0 (antibody, human IgG1, kappa)
heavy 1: not shown
heavy 2: not shown
light: B1 light
notes: He Ab; copies: 1 + 1 + 2
B24: GpH7-A5/GpH7-B3 variant P271_14T/GpL16-k0 (antibody, human IgG1, kappa)
heavy 1: not shown
heavy 2: not shown
light: B1 light
notes: He Ab; copies: 1 + 1 + 2
B25: GpH7-A5/GpH7-B3 variant P271_15Y/GpL16-k0 (antibody, human IgG1, kappa)
heavy 1: not shown
heavy 2: not shown
light: B1 light
notes: He Ab; copies: 1 + 1 + 2
B26: GpH7-A5/GpH7-B3 variant P271_16H/GpL16-k0 (antibody, human IgG1, kappa)
heavy 1: not shown
heavy 2: not shown
light: B1 light
notes: He Ab; copies: 1 + 1 + 2
B27: GpH7-A5/GpH7-B3 variant P271_18N/GpL16-k0 (antibody, human IgG1, kappa)
heavy 1: not shown
heavy 2: not shown
light: B1 light
notes: He Ab; copies: 1 + 1 + 2
B28: GpH7-A5/GpH7-B3 variant P271_19Q/GpL16-k0 (antibody, human IgG1, kappa)
heavy 1: not shown
heavy 2: not shown
light: B1 light
notes: He Ab; copies: 1 + 1 + 2
B29: GpH7-A5/GpH7-B3 variant P271_20W/GpL16-k0 (antibody, human IgG1, kappa)
heavy 1: not shown
heavy 2: not shown
light: B1 light
notes: He Ab; copies: 1 + 1 + 2
B30: GpH7-A5/GpH7-B3 variant P329_02A/GpL16-k0 (antibody, human IgG1, kappa)
heavy 1: not shown
heavy 2: not shown
light: B1 light
notes: He Ab; copies: 1 + 1 + 2

What follows are binders tested against T1, FcγRIIIa extracellular domain, C-terminal His tag (human, UniProt P08637 17-208) (assay: SPR, binding activity relative to GpH7-A5/GpH7-B3/GpL16-k0 (=100)).
T1 construct: extracellular domain; also called 3a
T1 sequence (P08637 other isoform, or with tags, fused parts or gaps): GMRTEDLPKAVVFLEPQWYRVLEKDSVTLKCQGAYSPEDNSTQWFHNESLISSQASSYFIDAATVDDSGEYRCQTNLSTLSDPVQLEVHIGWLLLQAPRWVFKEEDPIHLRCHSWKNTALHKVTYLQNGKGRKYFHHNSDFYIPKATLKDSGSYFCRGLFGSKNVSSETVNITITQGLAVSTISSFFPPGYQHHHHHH
B1 was tested, and the “He/Con 3a” value was 55.9%.
In the case of B2, the “He/Con 3a” value is reported as 51.1%.
With B3 the “He/Con 3a” value was 83.4%.
With B4 the “He/Con 3a” value was 53%.
For B5, the “He/Con 3a” value was 71.9%.
In the case of B6, the “He/Con 3a” value is reported as 68%.
With B7 the “He/Con 3a” value was 71.3%.
In the case of B8, the “He/Con 3a” value is reported as 100%.
B9 was tested, and the “He/Con 3a” value was 98.9%.
With B10 the “He/Con 3a” value was 61%.
For B11, the “He/Con 3a” value was 52.7%.
For B12, the “He/Con 3a” value was 119%.
B13 was tested, and the “He/Con 3a” value was 83.7%.
In the case of B14, the “He/Con 3a” value is reported as 73.5%.
With B15 the “He/Con 3a” value was 65.6%.
With B16 the “He/Con 3a” value was 74%.
For B17, the “He/Con 3a” value was 80.2%.
For B18, the “He/Con 3a” value was 74.5%.
With B19 the “He/Con 3a” value was 97.7%.
In the case of B20, the “He/Con 3a” value is reported as 98.2%.
For B21, the “He/Con 3a” value was 92.5%.
In the case of B22, the “He/Con 3a” value is reported as 87.6%.
For B23, the “He/Con 3a” value was 79.8%.
In the case of B24, the “He/Con 3a” value is reported as 59.2%.
B25 was tested, and the “He/Con 3a” value was 62.7%.
With B26 the “He/Con 3a” value was 70.3%.
With B27 the “He/Con 3a” value was 94%.
For B28, the “He/Con 3a” value was 84.6%.
In the case of B29, the “He/Con 3a” value is reported as 77.8%.
In the case of B30, the “He/Con 3a” value is reported as 55.2%.
